# Biological target: T1, tp8l2_human TNFAIP8L2 (UniProt Q6P589)
# T1 sequence: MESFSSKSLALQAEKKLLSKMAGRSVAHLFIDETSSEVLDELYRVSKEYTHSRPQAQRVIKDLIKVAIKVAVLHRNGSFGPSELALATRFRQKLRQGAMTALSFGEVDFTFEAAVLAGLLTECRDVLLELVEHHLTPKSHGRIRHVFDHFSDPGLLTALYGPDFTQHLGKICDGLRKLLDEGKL
substance,measurement,value
Ras-related C3 botulinum toxin substrate 1 (Homo sapiens) (from UniProt P63000-1) C189S,effect of a mutation on the interaction,disrupting interaction strength
